Test results published in US20150353909A1 (ACADEMIA SINICA, published 2015).

How the values were obtained:
[1] = target: T1, Lys48-linked UB chains (Ub2-7) (UniProt P0CG48 1-76, isopeptide bond between the C-terminus of the distal UB and Lys48 of the proximal UB); assay: GST pull-down, immunoblot
T1 construct: Bought mixture of chain lengths Ub2-7; also called K48-linked UB chains; K48-linked ubiquitin chains
Source text: (§1) The GST pull-down assay and the detection of pulled-down products by immunoblotting has been previously described (Fatimababy et al., (2010) FEBS J. 277, 796-816; Lin et al., (2011) Plant Cell 23, 2754-2773). The Lys48- and Lys63-linked UB chains (Ub2-7) were purchased from Boston Biochem.

[2] = target: T2, Lys63-linked UB chains (Ub2-7) (UniProt P0CG48 1-76, isopeptide bond between the C-terminus of the distal UB and Lys63 of the proximal UB); assay: GST pull-down, immunoblot
T2 construct: Bought mixture of chain lengths Ub2-7; also called K63-linked UB chains; K63-linked ubiquitin chains
Source text: as §1

binding result [1] | binding result [2] | Binder
no binding | no binding | GST-OTU4c (enzyme, Full-length coding region in pET42, expressed in E. coli; also called OTU4c (GST tag); not shown: GST and His tags from pET42 vector) MMICYSPITTCSRNAISIKRHLGSRLYGVVAHGSSKFSCYSLLSGLSRRHYTGFRVSVSNRPSSWHDKGLFGFAYTGVIVSLLVCYSSTSQSAYADSSRDKDANNVHHHSSDGKFHNGKRVYTDYSIIGIPGDGRCLFRSVAHGFCLRSGKLAPGEKMQRELADELRTRVADEFIQRRQETEWFVEGDFDTYVRQIRDPHVWGGEPELFMASHVLQMPITVYMKDDKAGGLISIAEYGQEYGKDDPIRVLYHGFGHYDALLLHESKASIPKSKL
no binding | no binding | GST-OTU10 (enzyme, also called OTU10 (GST tag); not shown: GST and His tags from pET42 vector) MVSHEENTSIVEWFLGPHPYTYPPYGIEMIHEDDEVAVAHHHHHHQSGEYYREYEDHRSSDVDNDEIIARTLQDDFLQLEIAESNDYSHQNQQQQHQQEGYTNNYSNNNNGYAWNDQSPAVDYSSEWIGNDNDQDGRSDDSVNVFSCSSPSDTDEYVYSWESDQCDADGEFGRRLNQMVPIPYIPKINGEIPPEEEAVSDHERLRNRLEMFDFTEVKVPGDGNCQFRALADQLYKTADRHKHVRRQIVKQLKSRPDSYQGYVPMDFSDYLRKMSRSGEWGDHVTLQAAADAYRVKIVVLTSFKDTCYIEILPTSQESKGVIFLSFWAEVHYNAIYLNRDTSETELQRKRKWWRFGN

Second part, the binder before the results:

Binder | binding result [1] | binding result [2]
GST-OTU9 (enzyme, Full-length coding region in pET42, expressed in E. coli; also called OTU9 (GST fusion); not shown: GST and His tags from pET42 vector) MGYEPDPDALRWGLHDLEVCTLTNAGSCSSVTRYESGGGGTQGYVREGYNQPVTGYVDNDAVIAQFYQDELSRVARAEASGINSLSPTSVVAQDWPHPHQGQENQGEAIDITQESDILHNHNGNMEDKNVARIRFEGGQSSPSRDDDSVCSVEIEEESWSEVGKRLNQMIPIAHVPKINGELPSEDEQISDHERLFQRLQLYGLVENKIEGDGNCQFRSLSDQLYRSPEHHNFVREQVVNQLAYNREIYEGYVPMAYNDYLKAMKRNGEWGDHVTLQAAADLFGVRMFVITSFKDTCYIEILPHFQKSNRLICLSFWAEVHYNSIYPEGELPIPEGKKKKKYWVF | no binding | no binding
GST-OTU7a (enzyme, Full-length coding region in pET42, expressed in E. coli; also called OTU7a (GST fusion); not shown: GST and His tags from pET42 vector) MAKTKQQKSKPKKQPHQKQGKDCDLSQFRAQLDALGLKIIQVTADGNCFFRAIADQLEGNEDEHNKYRNMIVLYIVKNREMFEPFIEDDVPFEDYCKTMDDDGTWAGNMELQAASLVTRSNICIHRNMSPRWYIRNFEDTRTRMIHLSYHDGEHYNSVRSKEDACGGPARPVVIEADAKVSAASKQAKATESKSKNKADKCHVNAGAIKVVMSGSCCDNTEKAEQVLLQVNGDVDAAIEFLIADQGMESLTENDTETASASDTINPKHASDSPMENTEQAREELIEEESASGNNSETVQAKCTTQTDDKKIPRNKTCPCGSKKKYKSCCGTATGRSSVKLLVSQTMESKKGRKNLRRGTSNEVEANAPDVGALCI | no binding | no binding
GST-OTU3 (enzyme, Full-length coding region in pET42, expressed in E. coli; also called OTU3 (GST fusion); not shown: GST and His tags from pET42 vector) MELKSSSNNNILEQLRNGFARFELVSSPTASVSDSISSTSLPASFISTTKGNSYVFFARINSSMNRSPAAKKVEKYAVDRVKGDGRCLFRALVKGMAFNKGITLNPQRERDDADELRMAVKEVICNDPKEREKYKEALVAITVDESLKRFCQRIGRHDFWGGESELLVLSKLCKQPIIVYIPEHEHGRGGGYGPGFIPIQEYGSEFRGGWGKGKTNKNVVRLLYSGRNHYDLLR | no binding | no binding
